Consider two substances from publication PMC5410052.

By Ki is commonly meant a measure of affinity in units of concentration, obtained from inhibition or displacement. A lower Ki goes with higher affinity.

The target of assay [1] is human MMP-1 (collagenase 1) (human) (UniProt P03956). The experiment in a line: enzyme inhibition assay (quenched fluorescent peptide substrate); 60/60/250/500 nM MMP-1/-2/-7/-14cd incubated with 0.98-1000 nM (N-)TIMPs for 30 min at room temperature, then 1 uM M-2350 substrate; KI from the equation for slow tight-binding inhibitors.
UniProt P03956, sequence (P03956 100-469): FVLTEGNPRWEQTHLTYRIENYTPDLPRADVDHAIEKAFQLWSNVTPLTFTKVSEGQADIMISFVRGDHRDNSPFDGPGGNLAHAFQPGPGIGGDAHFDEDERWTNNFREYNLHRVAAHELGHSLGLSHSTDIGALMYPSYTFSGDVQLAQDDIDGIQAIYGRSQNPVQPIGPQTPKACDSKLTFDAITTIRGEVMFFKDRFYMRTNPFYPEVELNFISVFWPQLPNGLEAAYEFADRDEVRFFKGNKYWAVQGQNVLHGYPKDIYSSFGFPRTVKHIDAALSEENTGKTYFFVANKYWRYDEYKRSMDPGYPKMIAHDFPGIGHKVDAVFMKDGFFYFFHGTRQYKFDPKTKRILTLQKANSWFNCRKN
In assay [2] the target is human MMP-2 (gelatinase A) (human) (UniProt P08253). Described as above.
UniProt P08253, sequence (P08253 110-660): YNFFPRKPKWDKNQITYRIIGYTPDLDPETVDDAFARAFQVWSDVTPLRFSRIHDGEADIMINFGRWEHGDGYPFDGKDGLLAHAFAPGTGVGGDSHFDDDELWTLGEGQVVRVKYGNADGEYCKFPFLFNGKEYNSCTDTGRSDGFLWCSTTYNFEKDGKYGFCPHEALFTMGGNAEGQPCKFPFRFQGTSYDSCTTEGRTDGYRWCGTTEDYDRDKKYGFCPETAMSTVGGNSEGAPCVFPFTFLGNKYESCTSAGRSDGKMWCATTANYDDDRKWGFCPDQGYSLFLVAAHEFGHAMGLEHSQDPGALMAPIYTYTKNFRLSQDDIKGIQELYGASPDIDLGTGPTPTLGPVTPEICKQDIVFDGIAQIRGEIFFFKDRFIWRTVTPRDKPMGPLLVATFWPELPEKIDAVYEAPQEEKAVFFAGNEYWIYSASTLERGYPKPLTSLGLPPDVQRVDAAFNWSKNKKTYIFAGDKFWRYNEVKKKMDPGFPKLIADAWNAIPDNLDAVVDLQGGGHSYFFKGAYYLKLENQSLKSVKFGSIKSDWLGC
Assay [3] addresses human MMP-7 (matrilysin) (human) (UniProt P09237). Described as above.
UniProt P09237, sequence (P09237 95-267): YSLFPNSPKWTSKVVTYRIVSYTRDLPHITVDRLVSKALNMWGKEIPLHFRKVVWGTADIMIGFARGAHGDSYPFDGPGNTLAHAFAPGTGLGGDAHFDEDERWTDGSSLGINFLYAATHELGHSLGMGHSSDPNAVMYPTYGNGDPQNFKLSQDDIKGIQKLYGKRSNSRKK
Assay [4] deals with catalytic domain of human MMP-14 (cdMMP-14) (human) (UniProt P50281). Described as above.
Assay [5] deals with human MMP-1 (collagenase 1) (human) (UniProt P03956).
Assay [6] has as its target human MMP-2 (gelatinase A) (human) (UniProt P08253).
The target of assay [7] is catalytic domain of human MMP-14 (cdMMP-14) (human) (UniProt P50281).
For assay [8], the target named is human MMP-7 (matrilysin) (human) (UniProt P09237).

In the case of “N-terminal domain of human TIMP-1 (N-TIMP-1) (domain or fragment)”, the Ki in assay [1] amounted to 7.21 nM; in assay [2], 11 nM; in assay [3], 4.62 nM.

Regarding “N-terminal domain of human TIMP-2 (N-TIMP-2) (domain or fragment)”, the Ki in assay [1] amounted to 0.65 nM; in assay [2], 0.8 nM; in assay [4] it was 3.96 nM; in assay [3] it was 2.86 nM. This substance showed an IC50 of inhibition of MMP-1 cleavage of a quenched fluorescent peptide substrate in assay [5] of 3 nM. This substance also yielded an IC50 of inhibition of MMP-2 cleavage of a quenched fluorescent peptide substrate in assay [6] of 6 nM. For the same substance, the IC50 of inhibition of cdMMP-14 cleavage of a quenched fluorescent peptide substrate in assay [7] came to 72 nM. In assay [8], this substance displayed an IC50 of inhibition of MMP-7 cleavage of a quenched fluorescent peptide substrate of 38 nM.
